Data from patent US20200384079A1, “Compositions of Fibroblast Growth Factor LIgands and Methods of Treating Patients Undergoing Ischemia-Reperfusion Therapy” (University of Cincinnati, priority 2017, published 2020).
“And” between values parts separate entries of the source, which are not always exact repeats. Identical values can stand only once. “Also recorded” adds a separate entry of the source.

Key:
[1] = system: in vivo rat model of myocardial infarction; assay: In vivo rat ischemia-reperfusion model, infarct size (TTC); parameters: species or system Sprague Dawley rats; settings: for effect on infarct size / cardioprotection (in words): FGF given at reperfusion with heparin co-therapy; for effect on infarct size (in words): given at reperfusion, no heparin co-therapy; for reduction in infarct size compared to saline/vehicle control: given i.v. at reperfusion alone (FGF 10 μg/kg; heparin 12 U/kg/hr)
Description: (§1) CVR-2016-799R1 signaling and the other two sets were to evaluate the pharmacokinetic properties of native FGF1 and modified FGF1 (FGF1^ΔHBS). The first set of experiments was for the ischemia/reperfusion study in which animals were divided into six groups as follows: (1) saline group: saline treatment given intravenously for 10 minutes immediately upon reperfusion, (2) heparin group: heparin, 60 U/kg intravenous (i.v.) bolus, given immediately at reperfusion+12 U/kg/hr i.v. infusion for 120 minutes of reperfusion, (3) FGF1 group: FGF1, 10 μg/kg i.v. infusion, given for 10 minutes immediately at reperfusion, (4) FGF1+heparin: heparin, 60 U/kg bolus, given immediately upon reperfusion followed by FGF1, 10 μg/kg i.v. infusion, given for 10 minutes and 12 U/kg/hr i.v. infusion given for 110 minutes of reperfusion, (5) modified FGF1 (FGF1^ΔHBS) group: FGF1^ΔHBS, 10 μg/kg i.v. infusion, given for 10 minutes, or (6) FGF1^ΔHBS+heparin: heparin, 60 U/kg bolus, given immediately at reperfusion followed by FGF1^ΔHBS, 10 μg/kg i.v. infusion, given for 10 minutes and 12 U/kg/hr i.v. infusion for 110 minutes of reperfusion. All rats were subjected to 30 minutes of regional ischemia and 120 minutes of reperfusion. Drugs were administered at the onset of reperfusion via the jugular vein (FIG. 2A). […] A total of ninety-six rats was completed for the I/R study. Sample size for each group ranged from 9-16 depending on the power analysis. A total of thirty-five rats were excluded from the study based on the lack of cyanosis of the heart or typical elevation of the ST segment in the electrocardiogram during ischemia, and death from malignant arrhythmia. For the biodistribution or FGF1 signaling study, rats were randomly divided into six groups as described above (FIG. 2B). Following drug treatment (immediately following 15 minutes of treatment or 105 minutes post-treatment at the point which mimics the length of time of reperfusion), solid organs and blood (see sections “Tissue collection for exogenous FGF1 biodistribution” and “Cardiac preparation to detect the activation of FGF1 downstream molecules”) were collected. A total of 33 rats were used for biodistribution and FGF1 signaling studies, and 3 rats were excluded due to anesthetic overdose. Also, a total of 8 plasma samples were excluded because of hemolysis. For elimination half-life of native FGF1 and FGF1^ΔHBS, 12 rats were randomly divided into two groups and treated intraperitoneally with either FGF1 form as described in the section “Pharmacokinetic evaluation of exogenous FGF1 or FGF1^ΔHBS ”.
The in vivo I/R model was established by ligating and loosening the left anterior CVR-2016-799R1 descending artery (LAD) previously described by our laboratory. In brief, rats were anesthetized with thiobutabarbital sodium salt hydrate, Inactin® hydrate (100 mg/kg, i.p., Sigma-Aldrich), and intubated and artificially ventilated via a rodent respirator (respiratory rate: 75 strokes/minute; tidal volume: 3 mL; Model 683, Harvard, USA). The heart was exposed through a left thoracotomy and pericardiotomy, and a 6-0 silk suture was placed around the left anterior descending (LAD) coronary artery. After equilibration for 15 minutes, hearts were subjected to 30 minutes of ischemia by ligating the LAD via a snare occluder and reperfusion occurred for 120 minute via loosening the snare occluder. The appearance of cyanosis of the heart and significant ST-segment elevation in the electrocardiogram were used to verify successful ligation.
At the end of the ischemia-reperfusion injury study, the LAD was re-occluded with the suture used previously for the establishment of ischemia. 5% Evans blue dye solution was given via the jugular vein to define the area-at-risk (AAR). Then, the heart was arrested in diastole with 1 mL of 15% potassium chloride, and the animal was euthanized with an anesthetic overdose followed by a bilateral pneumothorax for removal of the heart. […]

wildtype mouse hearts = assay: Ex vivo model, low-flow ischemia and reperfusion; settings: 10 μg immediately at reperfusion; 60 minutes low-flow ischemia, 60 minutes reperfusion
Description: FIGS. 12A-12B. […] Left bar is vehicle-treated and right bar is FGF2-treated wildtype mouse hearts.

[2] = Pharmacokinetic evaluation after intraperitoneal dose (serum ELISA); assay type: in vivo, rat; settings: single intraperitoneal dose 0.5 mg/kg
Description: as §1
The in vivo half-life of FGF1 or FGF^ΔHBS (given as a single, intraperitoneal dose of
0.5 mg/kg body weight) was assessed, using the human FGF1 immunoassay ELISA kit (R&D System, MN), from blood (i.e., serum) collected at varying times as described previously. The pharmacokinetic parameters of FGF1 or FGF1^ΔHBS were analyzed using the Drug and […]

[3] = as E6 but FGF 10 μg/kg i.v. in the presence of heparin co-administration
[4] = rat, 30 min ischemia/120 min reperfusion, given i.v. at reperfusion alone (FGF 10 μg/kg; heparin 60 U/kg bolus + 12 U/kg/hr)

Molecule	infarct size (% infarct, percentage of area-at-risk) [1, 3]	infarct size (% infarct, percentage of area-at-risk) [1, 4]	effect on infarct size / cardioprotection (in words) ([1]; rat, listed as native FGF1)	effect on infarct size (in words) ([1]; rat)	reduction in infarct size compared to saline/vehicle control ([1]; rat)	reduction in infarct size compared to saline/vehicle control ([1]; rat, listed as native FGF1)	contractile function (+dP/dt) compared to vehicle (in words) (wildtype mouse hearts)	infarct size compared to vehicle (in words) (wildtype mouse hearts)	effect on infarct size / cardioprotection (in words) ([1]; rat)	fold more efficacious in reducing infarct size than native FGF1 ([1]; rat, same dose at reperfusion)	absorption phase half-life (in words) ([2]; non-compartmental)	elimination phase half-life (in words) ([2]; non-compartmental, 0.5 mg/kg)	area-under-curve (AUC), fold greater than FGF1 ([2]; serum)	maximum serum concentration (Cmax), fold greater than FGF1 ([2]; serum)	time to reach maximum serum concentration (Tmax) (in words) ([2]; 0.5 mg/kg)
FGF1: native recombinant human fibroblast growth factor 1	42%	35%	markedly attenuated in the presence of heparin; also recorded: lower in the presence of heparin	significantly reduced infarct size compared to saline	31%	39% and 31%	significant enhancement of contractile function	significant reduction in infarct size	–	–	–	–	–	–	–
FGF1^ΔHBS: FGF1 mutant carrying the K127D/K128Q/K133V triple mutation in its HS-binding region; reduced heparin-binding affinity (protein) MAEGEITTFTALTEKFNLPPGNYKKPKLLYCSNGGHFLRILPDGTVDGTRDRSDQHIQLQLSAESVGEVYIKSTETGQYLAMDTDGLLYGSQTPNEECLFLERLEENHYNTYISKKHAEKNWFVGLDQNGSCVRGPRTHYGQKAILFLPLPVSSD	32%	22%	–	marked reduction in infarct size compared to the native form of FGF1; also recorded: markedly lowered infarct size compared to FGF1	62% and 60%	–	–	–	minor, and no statistically significant, inhibition; also recorded: did not reduce the cardioprotective effect; also recorded: not altered in the presence of heparin	~2 fold	not significantly different from FGF1	not significantly different from FGF1	2 fold	4 fold	reached earlier than with FGF1; also recorded: relatively fast
